Test results reported in patent publication US20240383984A1 (Genentech, published 2024).

B1: 15G8 (antibody, mouse IgG2a, V domains shown)
VH: EVQLQQSGPELVKPGASVKMSCKASGYTFTNYVIHWMKQKPGQGLEWIGYISPYNDYTKYNEKFEGKATLTSDKSSNTAYMELSSLTSEDSAVYYCARRDYYGSSDYWGQGTTLTVSS
VL: QIVLTQSPAIMSASPGEKVTMTCSASSSVDYMHWYQQKSGTSPKKWIYDTSKLASGVPARFSGSGSGTSYSLTIGSMEAEDAATYYCQQWSSNPPTFGGGTKLEIK
notes: mouse mAb, Campaign C; recombinant murine IgG2a for SPR; also called mAb 15G8
B2: 17B1 (antibody, mouse IgG2a, V domains shown)
VH: QVQLQQSGPELVRPGVSVKISCKGSGYTFTHYAMHWVKQSHTKSLEWIGMISSSSGNTNFNQKFMDKATMTVDKSSTTAYLELARLTFGDSAIYYCARWSYYALFDYWGQGTTVTVSS
VL: ENVLTQSPAIMSASPGEKVTMTCSADSSVDYIHWYQQKSNTSPKLWIYDTSKLASGVPGRFSGSGSGNSYSLTISSMEAEDFATYYCFQGSGYPLTFGSGTKLELK
notes: mouse mAb, Campaign C; recombinant murine IgG2a for SPR

Columns and labels:
Experiment in all cases: FACS, SVT2 cells
[1] = molecular target: T1, human FcRH3 (full-length, on SVT2 cells) (human, UniProt Q96P31 18-734)
T1 construct: whole, on cells; also called SVT2-FcRH3
T1 sequence (looked up): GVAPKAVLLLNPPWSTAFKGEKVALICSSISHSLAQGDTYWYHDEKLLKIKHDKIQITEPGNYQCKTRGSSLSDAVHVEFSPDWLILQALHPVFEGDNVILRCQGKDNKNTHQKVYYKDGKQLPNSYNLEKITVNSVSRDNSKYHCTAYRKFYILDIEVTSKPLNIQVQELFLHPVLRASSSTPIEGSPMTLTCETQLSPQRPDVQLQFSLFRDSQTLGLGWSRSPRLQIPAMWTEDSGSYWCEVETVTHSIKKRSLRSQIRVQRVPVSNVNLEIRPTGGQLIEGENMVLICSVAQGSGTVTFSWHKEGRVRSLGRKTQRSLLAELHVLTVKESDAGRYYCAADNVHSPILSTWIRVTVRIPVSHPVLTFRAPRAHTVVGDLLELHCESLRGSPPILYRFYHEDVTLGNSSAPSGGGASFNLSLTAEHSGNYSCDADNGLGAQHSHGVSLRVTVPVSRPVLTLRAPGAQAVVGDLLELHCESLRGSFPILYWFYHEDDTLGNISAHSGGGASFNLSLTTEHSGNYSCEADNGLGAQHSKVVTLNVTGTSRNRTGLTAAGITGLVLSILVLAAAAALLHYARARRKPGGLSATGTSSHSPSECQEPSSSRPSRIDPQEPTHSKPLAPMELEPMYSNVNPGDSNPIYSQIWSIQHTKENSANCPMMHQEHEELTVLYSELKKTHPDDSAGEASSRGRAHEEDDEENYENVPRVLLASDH

[2] = molecular target: T2, human FcRH1 (full-length, on SVT2 cells) (human, UniProt Q96LA6 17-429)
T2 construct: whole, on cells; also called SVT2-FcRH1
T2 sequence (looked up): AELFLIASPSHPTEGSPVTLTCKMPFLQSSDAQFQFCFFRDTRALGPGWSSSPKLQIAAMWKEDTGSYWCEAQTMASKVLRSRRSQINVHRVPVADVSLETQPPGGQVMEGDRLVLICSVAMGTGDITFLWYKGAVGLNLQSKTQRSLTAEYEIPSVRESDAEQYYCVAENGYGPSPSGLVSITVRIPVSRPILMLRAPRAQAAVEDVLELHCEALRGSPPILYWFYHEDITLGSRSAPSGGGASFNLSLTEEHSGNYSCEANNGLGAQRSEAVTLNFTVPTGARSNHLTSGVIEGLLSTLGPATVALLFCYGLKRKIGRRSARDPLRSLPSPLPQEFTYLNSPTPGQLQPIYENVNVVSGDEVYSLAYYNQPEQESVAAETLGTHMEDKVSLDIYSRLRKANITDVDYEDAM

[3] = molecular target: T3, human FcRH4 (full-length, on SVT2 cells) (human, UniProt Q96PJ5 20-515)
T3 construct: whole, on cells; also called SVT2-FcRH4
T3 sequence (looked up): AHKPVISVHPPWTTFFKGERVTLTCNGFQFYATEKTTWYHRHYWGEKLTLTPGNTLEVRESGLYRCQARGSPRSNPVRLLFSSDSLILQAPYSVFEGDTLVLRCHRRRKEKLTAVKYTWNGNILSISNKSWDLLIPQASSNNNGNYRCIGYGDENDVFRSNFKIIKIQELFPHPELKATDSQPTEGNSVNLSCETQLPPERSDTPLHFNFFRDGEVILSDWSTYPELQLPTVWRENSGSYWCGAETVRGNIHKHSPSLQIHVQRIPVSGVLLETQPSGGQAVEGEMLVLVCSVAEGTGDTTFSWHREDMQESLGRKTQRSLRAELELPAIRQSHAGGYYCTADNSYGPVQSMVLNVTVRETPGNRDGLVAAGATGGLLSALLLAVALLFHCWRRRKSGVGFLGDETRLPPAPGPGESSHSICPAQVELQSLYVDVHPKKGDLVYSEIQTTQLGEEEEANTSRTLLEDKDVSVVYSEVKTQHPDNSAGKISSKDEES

[4] = molecular target: T4, human FcRH5 (full-length, on cells) (human, UniProt Q96RD9 16-977)
T4 construct: Transfected SVT2/293 cells or endogenous expression (MOLP-2, primary cells); also called SVT2-FcRH5; SVT2-huFcRH5
T4 sequence: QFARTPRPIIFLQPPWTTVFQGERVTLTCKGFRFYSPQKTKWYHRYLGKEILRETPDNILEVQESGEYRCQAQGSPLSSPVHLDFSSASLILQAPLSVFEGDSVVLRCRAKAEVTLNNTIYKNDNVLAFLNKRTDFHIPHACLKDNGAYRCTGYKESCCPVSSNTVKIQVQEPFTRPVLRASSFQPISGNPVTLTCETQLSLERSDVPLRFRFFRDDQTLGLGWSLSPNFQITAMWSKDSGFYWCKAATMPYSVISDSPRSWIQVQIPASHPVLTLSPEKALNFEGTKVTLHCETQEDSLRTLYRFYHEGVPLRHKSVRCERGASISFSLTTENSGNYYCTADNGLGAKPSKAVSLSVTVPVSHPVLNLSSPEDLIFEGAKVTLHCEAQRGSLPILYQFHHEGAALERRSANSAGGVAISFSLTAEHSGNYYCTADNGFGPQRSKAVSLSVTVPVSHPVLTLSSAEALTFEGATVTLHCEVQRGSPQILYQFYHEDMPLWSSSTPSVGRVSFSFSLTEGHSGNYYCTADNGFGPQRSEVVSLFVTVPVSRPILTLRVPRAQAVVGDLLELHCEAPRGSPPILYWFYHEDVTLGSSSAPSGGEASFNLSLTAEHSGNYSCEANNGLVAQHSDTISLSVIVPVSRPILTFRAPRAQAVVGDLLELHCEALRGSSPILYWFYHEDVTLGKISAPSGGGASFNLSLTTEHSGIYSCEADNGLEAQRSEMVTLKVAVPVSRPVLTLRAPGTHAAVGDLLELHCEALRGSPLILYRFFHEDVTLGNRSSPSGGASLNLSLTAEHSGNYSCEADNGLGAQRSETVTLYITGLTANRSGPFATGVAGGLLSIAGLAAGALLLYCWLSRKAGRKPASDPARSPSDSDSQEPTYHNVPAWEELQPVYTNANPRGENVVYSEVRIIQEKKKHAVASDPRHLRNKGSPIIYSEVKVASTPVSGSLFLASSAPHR

binding result [1] | binding result [2] | binding result [3] | binding result [4] | Binder
no binding | no binding | no binding | binds | B1
no binding | no binding | no binding | binds | B2
